PMC10219671

Molecular target: SARS-CoV-2 HR2 protein (heptad repeat 2 of the S2 subunit of the spike protein) (SARS-CoV-2)
Assay: ELISA

## SARS-CoV-2 HR1 protein (heptad repeat 1 of the S2 subunit of the spike protein) (domain or fragment)
  IC50: 47.8 nM
